Measured values taken from patent US20080108793.

Test system: crotonyl-ACP

N-terminal His-tagged F. tularensis FabI
Km (crotonyl-ACP): 4.4 µM
